Assay: soluble on expression in E. coli; label from the status in PepcDB or PDB records

| Sequence | soluble on expression in E. coli |
| --- | --- |
| MGSDKIHHHHHHMMATIKDIAKEVGCSISTVSRVLNNDPTLSVGDETRSRIFEVAEEIGYRKKTLKTLVKNIAFLYWLTDNEELEDVYFQTMRVEIEKKARENNIELTTYKLEGGIEKIPLDIDGFIAVGSFMNRELEYLRELTPHGVFIDSTPDPAHYDSVRPDLAQITRQAVEVLVEQGHEKIGFIGGTYHNLDTDAEEMDGRERAFRQTMEERDLLREDFIFCRRGFSVDNGHYLMNQAVEQLGEELPTAFYVAADPIAVGCLQVLNEQQIEIPKRVSLISVNDTSISKYVSPPLTTFHIDLEEICQNAIQLLLERVLKKRNIVKTVYIGAELITRKSTL | not soluble |
| MGSDKIHHHHHHMMAYLVFLGPPGAGKGTYAKRLQEITGIPHISTGDIFRDIVKKENDELGKKIKEIMERGELVPDELVNEVVKRRLSEKDCERGFILDGYPRTVAQAEFLDGFLKTQNKELTAAVLFEVPEEVVVQRLTARRICPKCGRIYNLISLPPKEDELCDDCKVKLVQREDDKEETVRHRYKVYLEKTQPVIDYYDKKGILKRVDGTIGIDNVIAEVLKIIGWSDK | not soluble |
| MGSDKIHHHHHHMMDLEGYVRRCLRKKIPENKIIEDGFKRILEIKEDVDEEFAKKFIKAILEEVKTTEKFREIDDENLKTLLKYPKSGVTMGRMGVGSRGEGDFFVHREIARIVKSTKVKAYVSAEEQDDAGIVRADAKYIVAAIDGTHSRLSDFPFLGGFHVTRAALRDIYVMGAEAVALISDVHLADDGDVGKIFDFTAGICAVSEAVNVPLIGGSTLRVGGDMVIGDRLVSAVGAIGVIKEGEPTARRNAEVGDVILMTEGSGGGTITTTALYYGWFDVIYETLNVDFIKACQNLIRSGLIKKIHAMTDVTNGGLRGDAYEISKTAKVSLIFDKEKVYKTINPKVLEMLEVLNIDPLGVSTDSLMIICPEEYADDIKKVTGAIEVGYVEEGEESYLVDGNKKIPLKPMFRESAYTPVKKVVGERKPGDFEEMKEKVRRACDEAIKKKDFVVELLKERKKKF | not soluble |
| MGSDKIHHHHHHMMLTTKLIYCCLVSIVLHPINNLNPKPYISLFNLQGILLPTQFSHSLTSLDAFAPRLLAWFEINGRHDLPWQQHQTDTPNPYIVWLSEVMLQQTQVTTVLPYFARFMASFPTVQDLAAAEWDTVAEHWAGLGYYARARNLHKGAKQLVEVIDETGEYPTTLAGWEAISGVGPSTAGAIMAMGLHRYGVICDGNVKRVLTRWAAIDGDITKSATTKELWALAERLTPKENSGLFAQAMMDMGATLCTRSKPACLLCPLQDDCLAHAQGRETDYPVKAKKQPKPSKFSNALLIENENGEILWLQRPDNGIWGGLWSLPLAFIEKISGKVAVKDADKNKNKELIAANDNQLLEVASNEKVYETEFTTAEQIINEWINKNELVAKSVNDTLLDDSPIKHSLTHFHWYLTPQTVNLNTKQAQEITEALQAGEININWLNADDAQATLGLPKAMVKILE | not soluble |
| MGSDKIHHHHHHMMNVLRDGCSERGTARVGKHHDLKTVRWYVLTLPTTGVARRDKISPAKSLDAELSRRKRRGETLFEYFAPSYVEVRKVDGKMVNTKRPLLFNYVFIRSSVEEIFQMKRTLPLYNFLPRVSSGGMTHFPYLSDSEMGNLRWVAESYSNELPVYVPDSNRLLKGDRVRITSGYFTGMEAEVVIQPGGGHKDVMARILDCMWVPLLEVKPGEYELIELNTKGKHAYTHLDNDRLREGLHDALGRYHTSGSVAEEDTRLACEVLRSYGSLRAETDVMRCKIYSLLLSAYKLLGDEEEFTRLHDTMRGMLPVVKAPQSRALLLVTLYGCTDSALYRQMAHEVVDPWRGESSPKKSKLSLIRRLDDCDRWLRHNE | not soluble |
| MGSDKIHHHHHHMMRVFHLVLAPRLSGAEVLAKDLALDQCAEGMAVCVASLLPAHAEFAPLQDDLQRHGVQCVFPRRRHRALVKLCHLFGAVRRFRPDVIFAHATIPSFYARALPLRVPVVYVMHSATNDFERPLFRRIEHILSGRARVVIGVSEQGVTDYVQAIGPHPSMTVVPNGVDLARFSFTDGVERDGRTPQVVQIGRYAAVKNQLATVRAFSEVLMKGKDARLVLYGVVEDPDYQRAVVALAKELGIAERVVVAGPRTDVATVLSESNVFVMPSQSEAHSVAFLEALASGVPIVASKIPAFAFANGFPGVQLIDTDNVQCYAEAVIAALGQERAQRSLTGLTLRDTADRYRAIARQVSLAVPAR | not soluble |
| MGSDKIHHHHHHMMTAHAIGTREEWLAARLDLLEAEKNLTRRSDELAKWRRELPWVRIDKAYRFETDEGEASLRDLFKGRSQLLVYHFMFGPDYTAGCPSCSAIADGFNGIVAHLENHDVAFSAVSRAPLAKLTAYKRRLGWSFPWASSDDGAFNRDFCVWFTEQQQREGGIEYNFRREPPIPEQPASEPLAGRTVREWDASGSEGPVAQIAAMTGTDVATYTRDRPGVSAFALEDGIVYHTYSSYARGLDGLWGMYQWLDRTPKGRNENGIWWRRHDEYAQG | not soluble |
| MGSDKIHHHHHHMMTMRIAMISIHTSPLQQPGSGDAGGMNVYIISIARELARRGVDVDIYTRATRPSQGDVVEVESGLRVINIVAGPYEGLSKEELPTQLAAFAGGVVQFAKCHHMRYDVIHSHYWLSGQVGWLLRDLWNIPLVHTAHTLAAVKNAHRSAGDTEESEARRICEQQLVDNADILVVNTPEETNDLVRHYDANPDSVAVIAPGANVELFTPGTQRNTEQSRRCLGIPLHTKVMAFVGRLQQFKGPEVLLRAVAEMLERDPDRDMRVIMCGGPSGAAATVEHYIELTRSLGIAHRVRFLDPRPPEELVSVYQAADVVAVPSYNESFGLVAMEAQASGTPVVAARVGGLPIAVVDGETGVLVDGHDPIMWADALEQLLDDDPTRQQMGVAAVEHAANFTWAAAAEKLESVYGDAAMLDVAQCHDRYAAGSDRA | not soluble |
| MGSDKIHHHHHHMMVLEQPLKSFFTSLSQSKSMNKLAKKWGLKLGASQVVAGVTISEAIEKVKELNEKGLSATLDHLGEFVEERTEAIEATDHCIQTLEQIASSGVNCNLSLKLTQLGLDIDQSFCLENMERIIKKAAELGIFVRIDMEDYGHCQQTLDILAELRKTYDNVGTVIQAYLFRALDDVRALEGIPLRLVKGAYKESPEVAYQEKEKIDENYFNMIKLHLDSGTYTAIASHDHQIIDRVKAYVKEKGISHSQFEFQMLYGFRTNLQEELVKEGYNVRIYVPFGIDWFGYFMRRLAERPQNVAFALRGFFSK | not soluble |
| MGSDKIHHHHHHMNAHTNSQANTNVTNVVFRTHTQPDEAASKKAGRPIFTDIEVCDITFPANRQTRATFPAHDAEPNATRESMANGGGVMTYAQVYNAQYLAYKSGVAQPMGGTPLSEAPFLTESKRRELKALNVHTVEALASLDGMPLKQLGMGGRELKNQAVAYIDNAAGSADVTNLAAQVAILTQQLAEERRMREEFTNAALARRERIKAGEEIEDDEQPEDDEPAELEPEPDDFEPVLPPTFAEIDAMDDEALKVYIAKETGSRPRGNPNRDTLVAAAKELAS | not soluble |
| MGSDKIHHHHHHMNAPANFDSLEVGFDVPALPGMDEADIQTPCLVLDLDALERNIKKMGDYARAHGMRHRVHGKMHKSVDVAKLQERLGGAIGVCCQKVSEAEVFARGGIKDVLVSNQVRDPAKIDRLARLPKLGARTIVCVDDPANVADLSAAAQKHDTEIECFVEIDCGAGRCGVTTTEDVVEIAQAIDAAPGLKFTGIQAYQGAMQHLDSYEARKEKLDVAIAQVRDAVEGLKAADLAPELVSGGGTGSYYFESNSGVYNELQCGSYAFMDADYGRILDQDGKRIDQGEWENAFFILTQVMSHAKADKAICDAGLKAQSVDSGLPFIFGRTDVEYVKCSDEHGVIADPDGVLKVGEKLKLVPGHCDPTANVHDWYVGVRNGKVETLWPVSARGKAY | not soluble |
| MGSDKIHHHHHHMNDFIKFTGPADVLAFIPHTLGQTPTESFVALTMQGNKIGATLRVDAPFGQDPVGYAQTIVSYLTADEAATGSLLVIYTDESTTDGSSPYAGHVQALSTELETAGMPLQDAWLVTSELWRNYHCTDTGCCPDQPLDAITTSNGNAALIYRGSAVTGFIAPAPFTGDETAREAITARKPDGWPEDLEASRAAWARVLKDPKSLTTETAYQLAGALQHPTIRDYMMGDIVPHAPEQFTSVMLGVFPTRPDWARVDTAQEVAFELMKATPEGQRAPMLCLIGWLEWLKGQSSFAARYFKLALEDTAGYRLAELLDELVNRGLLADCSRDRKKAYDRRLKR | not soluble |
| MGSDKIHHHHHHMNDKEFGQRVRQLRESASMTREQFCDDELELSVRQLTRIEAGASKPTFSKIQYIATRLGMGLYELMPDYVSLPERYSKLKFDVLRTPTYGNEDLAEKRDAMMTEIYDDYYDELPEEEKIVVDTLCSLFDVLDTDSQEYGKEILDDYLHQSYHRSKLSINDLMILRLFIEHCQLEDLSVGTSNYALFTDLIEKLPQSIYDVHSESLFIVRDLFLAIVRILFSKELYNHIPVYIEKIENIMELSQDFQKKPILNLVKWKYELKVQHNHEIAERYYNEAITFASLLNQFHLKEKLQMEWEKDTQSLKR | not soluble |
| MGSDKIHHHHHHMNDLKRLPYEPVKGLLPRPAVGTSERVITLPEPDRTSGMPLMGTLWLRKSTREFDQQPLPLKQLSELLWAAAGVNRSLGGGRTAPSPYGETVIDVYVALPAGLYRYDPVHHCLELKRAADLRSMTGYQDFVGMAPLDLVFVANHGRMQEMPPKLRETFSAAAAGAMAENAYLYCASAGLGAVVRGWLNRRQLAEHMSLNEDEEPILSQTIGRAASHVTTTQA | not soluble |
| MGSDKIHHHHHHMNFKEALEGIKLVLESKAVPLLVGESGIGKTSLVKKLSKDEEYYYINIDGNLLKEGEIGGLPVVQDYGDEKSLIKKTVYAAYYKFIKIDEILKNNPNQKVLLFIDEINRCEHSVQQEIMNIILNREINGYKLKDNITVIAAMNPSSKYDEFEESDYQVNDMDPAQEDRFVWIYLESDVNNWIEWGHERINGESRIHEDILGFIASFPEYLSTPNSKESIKATPRSWERVSNIYKAYIKKKTKVSRNIFYNLIRGNVGTSIAQDFINYIDESKSPLLTPEDIFANDCISEDIKDRIRKESHSRLFLSAKNILFYLENKEDRSREVEIFSEFLSLYPNDLKLGIMQNIKSDSSKKLYKEFLENTSFLENFFLMYEGIED | not soluble |
| MGSDKIHHHHHHMNGGKPGVERDRREALLALAAALRPELHRYCARLMGSVIDGEDVVQDTFARAFVALDELCAVPQLRPWLFRIAHNRALDLLRSRATRVAEPIEAALEIVDDSKADAVETLMRKEAIETAVSRFAELPVVQRSVIILKDVLDEPLAEIAALLGISVDAVKAHLSRGRARLREINARTDPFPDARIASANVVRYINLFNQRDWDGLRALLAEDVRLQQSMHPPRSGAADVGMFFTIYAKSEGLWLKPAWVEGREVIAVFEHRAAPKPTHFMWLEWREGRISFIRDYRYVGYVADDARLVLASDVRSSGHGTKL | not soluble |
| MGSDKIHHHHHHMNGLDVLLSNNQNHHFYGVTIGVVTNNKDPKKLGRVKVKFPWLSSEEESYWARVVTLMAGNDRGIYFLPEVDDEVLVAFEQGDMNFPYILGALWNGKDKPPITNEDGKNNQRVIKSRSGHMIVLDDTEENEQIIIQDKTGKNKIVINSKENKMNIQVEKDLTIETKGKIILKSSDDDISIDCKNLQIKTQQNYQLEVGANCTIKAKSKYKLEAQSGLGIKCAAGVKINDGSLEVM | not soluble |
| MGSDKIHHHHHHMNILITGASGFIGRQLVERLAPHHQLTLLTRSVQQTQRILGNQHHYLESLDALSDLNHIDAIVNLAGEPIVAKRWSKNQKQRICDSRWDITARLTQLIQQSSNPPEIMVSGSAVGYYGRHDDKLLDESSGAHVEFSHDICRKWEQEALNANTEHTRVCIIRIGIVLGKGGALEKMLPPFKLGLGGPIGHGRQGMSWIHVQDLISLIDFLLSQEHCKGVFNATAPNPVSNAVFTKALGKALNRPALITTPPLALRLAMGEMSELLTEGQFVYPKRALEAGFQFQFSDLDNALTDVLAK | not soluble |

From the DeepSol protein solubility set
